Test results as given in US20140112930A1 (published 2014).
Where a chain is given by its changes, count along the chain named.

T1: wild-type human Ang-2 (hAng-2-WT) (human, UniProt O15123 19-496)
T1 construct: called full-length wild-type; also called Full-length wild-type human Ang-2
T1 sequence: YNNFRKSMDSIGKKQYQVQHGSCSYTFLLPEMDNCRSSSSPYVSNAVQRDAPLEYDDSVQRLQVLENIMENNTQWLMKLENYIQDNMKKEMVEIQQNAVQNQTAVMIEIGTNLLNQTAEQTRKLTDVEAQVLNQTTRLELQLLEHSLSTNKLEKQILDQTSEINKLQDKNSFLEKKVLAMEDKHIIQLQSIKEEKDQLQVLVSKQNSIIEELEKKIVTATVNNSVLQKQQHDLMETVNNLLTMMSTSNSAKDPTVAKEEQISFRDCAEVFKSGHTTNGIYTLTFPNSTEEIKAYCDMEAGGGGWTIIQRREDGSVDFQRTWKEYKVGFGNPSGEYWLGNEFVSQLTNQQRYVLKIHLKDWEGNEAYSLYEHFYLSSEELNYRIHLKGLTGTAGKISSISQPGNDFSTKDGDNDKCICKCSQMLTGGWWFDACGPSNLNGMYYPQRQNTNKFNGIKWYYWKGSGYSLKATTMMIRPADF

T2: Monomeric hAng-2FD (human, UniProt O15123 282-496)
T2 construct: also called fibrinogen-like domain of human Ang2; Human Ang-2FD
T2 sequence: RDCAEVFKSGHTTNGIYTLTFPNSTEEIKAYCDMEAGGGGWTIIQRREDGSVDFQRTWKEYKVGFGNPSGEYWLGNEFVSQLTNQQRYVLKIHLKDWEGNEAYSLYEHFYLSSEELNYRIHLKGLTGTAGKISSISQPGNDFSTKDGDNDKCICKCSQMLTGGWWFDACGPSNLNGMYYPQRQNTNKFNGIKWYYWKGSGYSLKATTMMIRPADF

B1: H1H704P (antibody, V domains shown)
VH: QVQLVESGGDVVQPGRSLRLSCAASGFTFSSYGMHWVRQAPGKGLEWVAIIWYDGSNKYYADSVKGRFTISRDNSKNTLYLQMNSLRVEDTAVYSCARDFSISSRHFDYWGQGTLVTVSS
VL: DIQMTQSPSSLSASVGDRVTITCRASQAINNYLAWFQQKPGKAPKSLIYATSNLQSGVPSQFSGSGSGTDYTLTISSLQPEDFATYYCQQYYIYPITFGQGTRLEIK
B2: H1H706P (antibody, V domains shown)
VH: QVQLVESGGGVVQPGRSLRLSCAASGFTFSSYGMHWVRQAPDKGLEWVAVKWDDGSNKYYADSVKGRFTISRDNSKNTLYLQMNSLRAEDTAVYYCAREGPYDFYSGYGAFDIWGQGTMVTVSS
VL: DIQMTQSPSSLSASVGDRVTITCRASQGISNYLAWFQQKPGKAPKSLIYAASSLQSGVPSKFSGSGSGTDFTLTISSLQPEDFATYYCQQYNSYPRTFGQGTKVEIK
B3: H1H707P (antibody, V domains shown)
VH: B2 VH
VL: not shown
B4: H1H724N (antibody, V domains shown)
VH: QVQLVESGGGVVQPGRSLRLSCAASGFTLSNYGMHWVRQAPGKGLEWVAVIWHDGSNTYYADSVKGRFTISRDNSKNTLYLQMNSLRAEDTAVYYCTREGLDFWSGYYPNWFDPWGQGTLVTVSS
VL: DIQMTQSPSSLSASVGDRVTITCRASQGIRNDLGWYQQKPGKAPKRLIYAASNLQGGVPSRFSGSGSGTEFTLTISSLQPEDFAAYYCLQHNIYPLTFGGGTKVEIK
B5: H1H728N (antibody, V domains shown)
VH: EVQLVESGGDLVQPGGSLRLSCTASGFTFSKYWMTWVRQAPGRGLEWVANIKEDGNEKYFLDSVKGRFTISRDNAKDLLFLQMNSLRGEDTAVYYCVRDRGIEVAGPFDYWGQGTLVTVSS
VL: DIQMTQSPSTLSASVGDRVTVTCRASQTIINWLAWYQQKPGKAPKLLISKASSLESGVPSRFSGSGSGTEFTLTISSLQPDDFATYYCQQYNRYWTFGQGTMVEIK
B6: H1H730N (antibody, V domains shown)
VH: EVQLVESGGGLVQPGGSLRLSCAASGFAFRSYWMTWVRQAPGKGLEWVANIQQDGNDKYYVDSVKGRFTISRDNAKNSLYLQMNSLRAEDTAVYYCARDTGIAEAGPFDYWGQGTLVTVSS
VL: B5 VL with T20S, V21I, N31S, K45R, S49Y, S76N, M102K
B7: H1H732N (antibody, V domains shown)
VH: EVQLVESGGGLVRPGGSLRLSCAASGFTFTNAWMSWVRQAPGKGLEWIGQIKSKTDGGTIDYAAPVKGRFTVSRDDSENTLFLQMNSLKTEDTAVYYCAGNWNYVDFDYWGQGTLVTVSS
VL: B4 VL with G28D, N53S, A85T, I93S, L96F, G100P, E105D
B8: H1H742N (antibody, V domains shown)
VH: DVQLLESGGDLVQPGGSLRLSCEASGFTFRNYVMIWVRQAPGKGLEWVSGISNSGGTTHYTDSVKGRFTISRDNSKNTLYLQINSLRAEDTAVYYCAKGYLDTSLIEGNWFDPWGQGTLVTVSS
VL: NIVMTQSPLSLPVTPGEPASISCRSSQSLLHSNGFNYLNWFLQKPGQSPQLLIYLGSNRASGVPDKFSGSGSGTDFTLNINRVEAEDVGIYFCMQTLQTPLTFGGGTKVEIK
B9: H1H743N (antibody, V domains shown)
VH: EVQLLESGGGLVQPGGSLRLSCAASGFTFRKYAMSWVRQAPGKGLEWVSVISVSGGNTYYADSVKGRFTISRDNSKNTLYLQLNSLRAEDTAVYYCAKDLTDIVLMVYVDYWGQGTLVTVSS
VL: DIQMTQSPSSVSASVGDRVTITCRASQDIDRWLAWYQQKPGKAPKLLIYAASSLQSGVPSRFSGSGSGTDFTLTISTLQPEDFATYYCQQANSLPFTFGGGTKVEIK
B10: H1H749N (antibody, V domains shown)
VH: QVQLVESGGGVVQPGRSLRLSCAASGFTFSSYGMHWVRQAPGKGLEWVAVIWYDEFNKYYADSVKGRFTISRDNSKNTLYLQMNSLRAEDTAVYYCARERESGYSYGFDYWGQGTLVTVSS
VL: EIVMTQSPATLSVSPGERATLSCRAGQSVSSNLAWYQQKPGQAPRLLIYGASTRATGIPARFSGSGSGTEFTLTISSLQSEDFAVYYCQQYNNWWTFGQGTKVEIK
B11: H1H691P (antibody, V domains shown)
VH: EVQLVESGGGLVQPGRSLRLSCAASGFTFDDYAMHWVRQAPGKGLEWVSGISWNSGDIGYADSVKGRFTISRDNAKNSLYLQMNSLRAQDTALYYCAKAYGDYYYFYGMDVWGQGTTVTVS
VL: EIVLTQSPGTLSLSPGERATLSCRASQSVSSSYLAWYQQKPGQAPRLLIFSASSRATGIPDRFSGSGSGTDFTLTISRLEPEDFAVYYCQQYDNSLTFGGGTKVEIK

Biological target: T3, Dimeric Mouse Ang-2FD conjugated to human IgG1 (mouse (Mus musculus); human)
T3 construct: also called Mouse Ang-2FD-hFc
T3 sequence (chain, as listed by the source limits assumed): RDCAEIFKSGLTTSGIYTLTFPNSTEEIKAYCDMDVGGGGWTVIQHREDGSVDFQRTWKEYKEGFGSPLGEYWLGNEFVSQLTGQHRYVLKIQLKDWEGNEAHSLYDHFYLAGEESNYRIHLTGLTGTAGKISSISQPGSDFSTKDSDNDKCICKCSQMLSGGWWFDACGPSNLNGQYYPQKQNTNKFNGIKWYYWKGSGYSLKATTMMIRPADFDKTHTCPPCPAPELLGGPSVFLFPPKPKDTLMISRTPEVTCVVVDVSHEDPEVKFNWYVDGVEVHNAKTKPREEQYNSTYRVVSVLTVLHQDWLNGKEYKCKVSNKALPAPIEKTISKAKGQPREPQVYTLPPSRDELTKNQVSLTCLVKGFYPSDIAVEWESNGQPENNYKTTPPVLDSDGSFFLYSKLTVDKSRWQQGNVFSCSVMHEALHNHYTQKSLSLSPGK
Experiment: SPR, captured Ab, RT
Method: (§1) Antibody was captured on a goat anti-mouse IgG polyclonal antibody surface, a goat anti-human κ polyclonal antibody (Southern Biotech, Birmingham, Ala.) surface or a goat anti-human IgG polyclonal antibody (Jackson Immuno Research Lab, West Grove, Pa.) surface created through direct amine coupling to a BIACORE™ CM5 sensor chip to form a captured antibody surface. […] Antigen-antibody binding and dissociation were monitored in real time at room temperature. Kinetic analysis was performed to calculate KD and half-life of antigen/antibody complex dissociation.

Binder	Kd	T1/2
B1	484 pM	1.03 h
B2	357 pM	0.783 h
B3	328 pM	0.573 h
B4	185 pM	1.4 h
B5	5760 pM	0.333 h
B6	97.1 pM	1.5 h
B7	529 pM	0.85 h
B8	276 pM	0.967 h
B9	124 pM	3.88 h
B10	177 pM	1.6 h
B11	220 pM	0.73 h

Biological target: T4, Dimeric Monkey Ang-2FD conjugated to human IgG1 (monkey (Macca fascicularis); human)
T4 construct: also called Monkey Ang-2FD-hFc
T4 sequence (chain, as listed by the source limits assumed): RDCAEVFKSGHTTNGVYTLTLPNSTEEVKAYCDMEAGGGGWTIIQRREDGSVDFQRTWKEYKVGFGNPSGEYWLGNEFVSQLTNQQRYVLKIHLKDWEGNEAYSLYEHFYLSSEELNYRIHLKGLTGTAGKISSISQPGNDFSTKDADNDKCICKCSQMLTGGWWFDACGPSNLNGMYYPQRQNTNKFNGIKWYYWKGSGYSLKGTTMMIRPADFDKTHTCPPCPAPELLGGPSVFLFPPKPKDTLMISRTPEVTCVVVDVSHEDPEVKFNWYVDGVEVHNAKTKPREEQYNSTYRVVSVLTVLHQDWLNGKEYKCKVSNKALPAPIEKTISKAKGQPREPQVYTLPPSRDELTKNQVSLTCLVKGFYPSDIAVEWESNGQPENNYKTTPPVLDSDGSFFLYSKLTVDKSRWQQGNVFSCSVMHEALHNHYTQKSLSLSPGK
Experiment: SPR, captured Ab, RT
Method: as §1

Binder	Kd	T1/2
B1	818 pM	0.558 h
B2	164 pM	0.888 h
B3	283 pM	0.372 h
B4	239 pM	2.88 h
B5	2000 pM	1.28 h
B6	3400 pM	1.45 h
B7	439 pM	1.97 h
B8	683 pM	1.55 h
B9	96.5 pM	13 h
B10	407 pM	2.38 h
B11	290 pM	0.683 h

Biological target: T5, Dimeric Human Ang-2FD conjugated to human IgG1 (human)
T5 construct: also called Human Ang-2FD-hFc; hAng-2FD-hFc
Experiment: SPR, captured Ab, RT
Method: as §1

Binder	Kd	T1/2
B1	331 pM	1.43 h
B2	201 pM	0.84 h
B3	262 pM	0.443 h
B4	115 pM	1.78 h
B5	162 pM	1.35 h
B6	234 pM	1.03 h
B7	386 pM	0.95 h
B8	186 pM	1.08 h
B9	88.2 pM	4.23 h
B10	118 pM	1.82 h
B11	220 pM	0.642 h

Biological target: T1, wild-type human Ang-2 (hAng-2-WT)
Experiment: SPR, captured Ab

Binder	Kd	T1/2
B1	36.2 pM	12.5 h
B2	27.4 pM	11 h
B4	22.6 pM	14.9 h
B5	43 pM	9.43 h
B6	47.5 pM	8.9 h
B7	202 pM	4.4 h
B8	44.9 pM	11.1 h
B9	9.48 pM	65.5 h
B10	12.5 pM	30.6 h

Biological target: T2, Monomeric hAng-2FD
Experiment: SPR, captured Ab

Binder	Kd	T1/2
B1	390 pM	0.0552 h
B2		0.017 h
B4	2400 pM	0.222 h
B5	1180 pM	0.0977 h
B6	2840 pM	0.0573 h
B7	264000 pM	0.00367 h
B8	486000 pM	0.0382 h
B9	2350 pM	0.55 h
B10	1130 pM	0.558 h

Biological target: T6, human bow-Ang-2 tetrameric construct (hBA2) (human)
T6 construct: also called human BA2; hBA2-hIgG1
T6 sequence (chain, as listed by the source limits assumed): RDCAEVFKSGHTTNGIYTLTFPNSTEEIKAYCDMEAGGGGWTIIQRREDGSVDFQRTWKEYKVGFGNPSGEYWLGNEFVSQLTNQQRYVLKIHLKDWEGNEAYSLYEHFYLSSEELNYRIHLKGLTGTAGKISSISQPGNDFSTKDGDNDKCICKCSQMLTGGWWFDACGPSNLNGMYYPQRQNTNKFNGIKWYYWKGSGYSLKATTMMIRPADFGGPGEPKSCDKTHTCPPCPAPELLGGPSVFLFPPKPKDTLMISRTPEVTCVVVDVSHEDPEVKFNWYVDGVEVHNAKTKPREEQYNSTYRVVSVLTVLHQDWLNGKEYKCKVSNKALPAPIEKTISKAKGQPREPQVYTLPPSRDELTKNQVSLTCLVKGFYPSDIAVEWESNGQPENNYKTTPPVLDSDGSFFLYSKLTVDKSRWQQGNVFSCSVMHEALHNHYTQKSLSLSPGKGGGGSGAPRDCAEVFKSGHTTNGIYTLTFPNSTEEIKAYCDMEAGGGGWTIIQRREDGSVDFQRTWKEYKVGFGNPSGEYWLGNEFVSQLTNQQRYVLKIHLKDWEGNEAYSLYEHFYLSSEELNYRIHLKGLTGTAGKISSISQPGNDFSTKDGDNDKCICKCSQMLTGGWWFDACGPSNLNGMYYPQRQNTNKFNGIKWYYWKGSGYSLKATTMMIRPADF
Experiment: SPR, captured Ab

Binder	Kd	T1/2
B1	93.9 pM	1.96 h
B2	79.1 pM	1.06 h
B4	23.3 pM	5.38 h
B5	41.8 pM	3.08 h
B6	55.9 pM	2.53 h
B7	132 pM	1.22 h
B8	72.1 pM	1.45 h
B9	9.71 pM	18.6 h
B10	32.5 pM	3.92 h
